# Data from patent US20230212222A1 (ANYGEN CO., LTD., priority 2020, published 2023).
# Numbered stars: 1 amine (or outer) side, 2 acyl side, 3 side chain; on linkers, the order of the positions; unused ones are H or OH. Square brackets hold non-standard residues; d marks the D form. Ends that are not written are not given here. * marks the point of attachment. DAMP‑2 = His whose imidazole is a 1,3-bis(2-cyclohexylethyl)-2,3-dihydro-1H-imidazol-4-yl group, O=C([C@H](CC1=CN(CCC2CCCCC2)CN1CCC1CCCCC1)N[*:1])[*:2]; DAMP‑3 = His whose imidazole is a 1,3-diphenethyl-2,3-dihydro-1H-imidazol-4-yl group, O=C([C@H](CC1=CN(CCc2ccccc2)CN1CCc1ccccc1)N[*:1])[*:2]; 1,2‑diphenyl = His whose imidazole is a 1,2-diphenyl-1H-imidazol-4-yl group, O=C([C@H](Cc1cn(-c2ccccc2)c(-c2ccccc2)n1)N[*:1])[*:2]; tbm = (2'-(1H-tetrazol-5-yl)-[1,1'-biphenyl]-4-yl)methyl on the histidine imidazole nitrogen, c1ccc(-c2nn[nH]n2)c(-c2ccc(C*)cc2)c1; 2‑(4-tert-butyl)phenyl = His carrying a 2-(4-tert-butylphenyl) group on the imidazole (imidazole C2), CC(C)(C)c1ccc(*)cc1; DAMP‑5 = His whose imidazole is a 3-(2-cyclohexylethyl)-2,3-dihydro-1H-imidazol-4-yl group; thiophene = His carrying a thiophen-2-yl group on the imidazole (imidazole C2), c1csc(*)c1; 1‑phenyl = His whose imidazole is a 1-phenyl-1H-imidazol-4-yl group, c1ccc(*)cc1; 2‑phenyl = His whose imidazole is a 2-phenyl-1H-imidazol-4-yl group; 4‑methoxylbenzhydryl = COc1ccc(C(c2ccccc2)*)cc1; Biotin = O=C1N[C@H]2[C@H](CS[C@H]2CCCCC(=O)*)N1; dPhe(4-CF3) = N[C@H](Cc1ccc(C(F)(F)F)cc1)C(=O)O; Fm = 9H-fluoren-9-yl, c1ccc2c(c1)-c1ccccc1C2*; 1‑(4-tert-butyl)phenyl = CC(C)(C)c1ccc(*)cc1; dPhe(4-Cl) = N[C@H](Cc1ccc(Cl)cc1)C(=O)O; dPhe(4-Me) = Cc1ccc(C[C@@H](N)C(=O)O)cc1; Trt = c1ccc(C(c2ccccc2)(c2ccccc2)*)cc1; CH2(1-naphthyl) = c1ccc2c(C*)cccc2c1; Benzhydryl = c1ccc(C(c2ccccc2)*)cc1; 2‑cyclohexylethyl = C1CCC(CC*)CC1; Tos = Cc1ccc(S(=O)(=O)*)cc1; Octanoyl = CCCCCCCC(=O)*
# T1: GPR39 (G protein-coupled receptor 39) (Homo sapiens (Human), UniProt O43194 1-453)
# T1 sequence: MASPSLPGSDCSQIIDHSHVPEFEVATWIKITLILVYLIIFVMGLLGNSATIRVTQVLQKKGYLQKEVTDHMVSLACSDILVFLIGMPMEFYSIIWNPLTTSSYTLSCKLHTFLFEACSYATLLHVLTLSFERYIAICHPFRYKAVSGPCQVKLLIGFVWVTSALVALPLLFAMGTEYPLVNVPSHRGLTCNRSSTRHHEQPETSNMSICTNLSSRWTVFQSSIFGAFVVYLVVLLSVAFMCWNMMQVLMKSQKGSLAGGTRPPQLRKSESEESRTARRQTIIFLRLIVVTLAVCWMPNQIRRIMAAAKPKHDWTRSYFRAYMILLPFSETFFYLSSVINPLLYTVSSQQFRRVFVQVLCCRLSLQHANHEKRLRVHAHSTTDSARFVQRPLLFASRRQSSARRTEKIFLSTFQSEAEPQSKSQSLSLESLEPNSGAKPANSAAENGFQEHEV
# B1: HKFY-77 (peptide)
# peptide: H(tbm)K(Octanoyl)FY
# modifications: not fully specified (residue 3); printed as His(tbm)-Lys(caprylic)-d-Phe(4-CF3)-Tyr
# Target: T1, GPR39 (G protein-coupled receptor 39)
# Assay: cell-based or functional assay
Binder,EC50 (luciferase reporter) [µM],ECmax (-fold induction over basal)
H(Trt)K(Octanoyl)LY [HKFY-51],0.12,14.4 -fold induction over basal
H(2‑(4-tert-butyl)phenyl)K(Octanoyl)[dPhe(4-Me)]Y [HKFY-60],0.19,28.2 -fold induction over basal
H(4‑methoxybenzhydryl)K(Octanoyl)[dPhe(4-Me)]Y [HKFY-64],0.007,16 -fold induction over basal
H(2‑phenyl)K(Octanoyl)[dPhe(4-Me)]Y [HKFY-57],0.26,8.5 -fold induction over basal
H(Trt)K(Octanoyl)[dF]Y [HKFY-12],0.035,20.7 -fold induction over basal
H(4‑methoxylbenzhydryl)K(Octanoyl)FY [HKFY-20],159,20.3 -fold induction over basal
H(4‑hydroxybenzhydryl)K(Octanoyl)[dPhe(4-Me)]Y [HKFY-65],0.003,18.3 -fold induction over basal
"H(1,2‑diphenyl)K(Octanoyl)[dPhe(4-Me)]Y [HKFY-59]",0.55,6.76 -fold induction over basal
H(DAMP‑5)K(Octanoyl)FY [HKFY-7],1.56,16 -fold induction over basal
H(Trt)K(caproic)FYDQQARF [HKFY-56],,14.9 -fold induction over basal
H(Benzhydryl)K(Octanoyl)[dPhe(4-Me)][Tyr(3-amino)] [HKFY-70],0.02,10.1 -fold induction over basal
Biotin-H(Trt)K(Octanoyl)FY [HKFY-2],0.14,15 -fold induction over basal
H(1‑(4-tert-butyl)phenyl)K(Octanoyl)[dPhe(4-Me)]Y [HKFY-61],0.02,9.88 -fold induction over basal
H(2‑cyclohexylethyl)K(Octanoyl)FY [HKFY-11],57.8,22 -fold induction over basal
H(4‑methyltrityl)K(Octanoyl)FY [HKFY-5],1.84,16 -fold induction over basal
H(DAMP‑3)K(Octanoyl)FY [HKFY-6],68.4,15 -fold induction over basal
His(Benzhydryl)-Lys(Octanoyl) [HKFY-79],0.97,11.2 -fold induction over basal
H(DAMP‑2)K(Octanoyl)FY [HKFY-8],33.6,17.3 -fold induction over basal
Biotin-H(Benzhydryl)K(Octanoyl)[dPhe(4-Me)]Y [HKFY-72],0.011,10.4 -fold induction over basal
[dH](Benzhydryl)K(Octanoyl)[dPhe(4-Me)]Y [HKFY-62],0.83,28.1 -fold induction over basal
H(Benzhydryl)K(Octanoyl)[dPhe(4-Me)][Tyr(3-chloro)] [HKFY-67],0.043,10.2 -fold induction over basal
[dH](Trt)K(Octanoyl)[dPhe(4-Cl)][dY] [HKFY-14],0.02,20.9 -fold induction over basal

Binder,EC50 (luciferase reporter) [µM],ECmax (-fold induction over basal)
H(Fm)K(Octanoyl)FY [HKFY-18],2.29,10 -fold induction over basal
Lys(Octanoyl)-Phe-Tyr [HKFY-54],25.9,7.8 -fold induction over basal
H(phenethyl)K(Octanoyl)FY [HKFY-19],24.6,18 -fold induction over basal
H(Trt)[dK](Octanoyl)[dPhe(4-Cl)]Y [HKFY-16],0.24,27.9 -fold induction over basal
H(Tos)K(Octanoyl)[dPhe(4-Me)]Y [HKFY-75],0.001,15.9 -fold induction over basal
H(1‑phenyl)K(Octanoyl)[dPhe(4-Me)]Y [HKFY-58],0.02,9.12 -fold induction over basal
H(Benzhydryl)K(Octanoyl)[dPhe(4-Me)][Tyr(3-nitro)] [HKFY-68],0.013,10.8 -fold induction over basal
H(Trt)K(Octanoyl)[dPhe(4-CF3)]Y [HKFY-76],0.007,14.2 -fold induction over basal
H(Trt)GSK(Octanoyl)FY [HKFY-53],0.34,8 -fold induction over basal
B1,0.007,11.6 -fold induction over basal
H(thiophene)K(Octanoyl)[dPhe(4-Me)]Y [HKFY-63],0.006,13.5 -fold induction over basal
"H(Benzhydryl)K(Octanoyl)[dPhe(4-Me)][Tyr(3,5-nitro)] [HKFY-69]",0.015,12.2 -fold induction over basal
"H(3,3‑diphenylethyl)K(Octanoyl)FY [HKFY-17]",8.12,20 -fold induction over basal
H(Trt)K(Octanoyl)[dPhe(4-Cl)][dY] [HKFY-15],0.098,24.7 -fold induction over basal
H(Benzhydryl)K(Octanoyl)[dPhe(4-Me)]Y-NH2 [HKFY-66],0.011,20.2 -fold induction over basal
H(Trt)K(Octanoyl)[dPhe(4-Cl)]Y [HKFY-13],0.014,25.7 -fold induction over basal
H(Trt)K(Octanoyl)FS [HKFY-50],0.7,16.2 -fold induction over basal
H(Trt)K(Octanoyl)FY [HKFY-1],0.15,20.5 -fold induction over basal
H(Trt)FYDQQARF (not fully specified; printed as His(trt)-Phe-Tyr-Asp-Gln-Gln-Ala-Arg-Phe) [HKFY-52],56.4,15.5 -fold induction over basal
K(Octanoyl)H(Trt)FY [HKFY-55],2.49,16.8 -fold induction over basal
HK(Octanoyl)FY (not fully specified (residue 1)) [HKFY-9],42.7,21 -fold induction over basal
H(CH2(1-naphthyl))K(Octanoyl)FY [HKFY-10],46.5,14 -fold induction over basal
